Assay [1] has as its target acto-Myo1c^1IQ (pyr.actin-Myo1c^1IQ) (Rattus norvegicus, UniProt Q63355). In kind it is binding.
In assay [2] the target is rabbit skeletal muscle F-actin (rabbit) (UniProt P68135).
Assay [3] has the same target. This is another data set of the same source.

Broadly, the Kd is the equilibrium constant for the complex coming apart. For the compound `Nc1ncnc2c1ncn2[C@@H]1O[C@H](COP(=O)(O)OP(=O)(O)O)[C@@H](O)[C@H]1O` [ADP], the dissociation constant (Kd) in assay [1] was found to be 1740 nM.
As to “Myo1c^1IQ-G (from UniProt Q63355 1-725) (domain or fragment)”, the Km for actin of the steady-state actin-activated Mg2+-ATPase, pCa 4.6 in assay [2] is 0.28 μM.
In turn, “Myo1c^SAH-G (from UniProt Q63355 1-762; D3ZJP6 805-843) (domain or fragment)” returned an in vitro motility: speed of actin filaments over surface-held myosin in assay [3] of 29 nm/s.

The values above are taken from PMC2826812 (Biochemistry, 2010).
